Experimental data reported in EP4682166A1 (Guangzhou Enmai Biotechnology Co., Ltd, dated 2026).

Experiments:
[1] = biological target: T1, NMI-flag overexpressed protein (293T cells transfected with the hNMI-flag plasmid) (human) (UniProt Q13287); test: sandwich ELISA; detection 94C4-1-biotin; cell supernatant of NMI-flag 293T, replicate 1
T1 sequence (looked up): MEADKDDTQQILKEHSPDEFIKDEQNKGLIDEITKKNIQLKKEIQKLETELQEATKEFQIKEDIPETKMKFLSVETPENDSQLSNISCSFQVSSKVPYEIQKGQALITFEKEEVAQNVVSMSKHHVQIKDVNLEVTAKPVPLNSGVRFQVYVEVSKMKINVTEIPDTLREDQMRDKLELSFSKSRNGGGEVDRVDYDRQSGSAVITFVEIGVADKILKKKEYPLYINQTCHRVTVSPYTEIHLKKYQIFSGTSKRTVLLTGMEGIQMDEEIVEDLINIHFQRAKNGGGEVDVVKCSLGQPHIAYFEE

[2] = biological target: T2, natural NMI in joint fluid of an arthritic patient (human) (UniProt Q13287); test: sandwich ELISA; detection 94C4-1-biotin 0.5µg/mL; joint fluid stock solution
T2 sequence (looked up): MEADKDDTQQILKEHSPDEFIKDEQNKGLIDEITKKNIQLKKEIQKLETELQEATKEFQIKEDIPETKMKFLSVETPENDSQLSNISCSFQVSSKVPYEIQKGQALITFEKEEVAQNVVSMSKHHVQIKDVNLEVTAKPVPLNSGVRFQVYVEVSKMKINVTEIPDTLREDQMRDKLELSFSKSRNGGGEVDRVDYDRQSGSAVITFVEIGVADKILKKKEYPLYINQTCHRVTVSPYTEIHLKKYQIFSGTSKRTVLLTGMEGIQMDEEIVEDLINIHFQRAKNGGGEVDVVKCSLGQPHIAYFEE

[3] = biological target: T3, human NMI (N-myc Interacting protein) (human) (UniProt Q13287); test: magnetic-bead chemiluminescent sandwich; capture 98G10 beads (0.5 mg 98G10), detection acridinium-B-8; hNMI 1000 pg/ml
T3 sequence (looked up): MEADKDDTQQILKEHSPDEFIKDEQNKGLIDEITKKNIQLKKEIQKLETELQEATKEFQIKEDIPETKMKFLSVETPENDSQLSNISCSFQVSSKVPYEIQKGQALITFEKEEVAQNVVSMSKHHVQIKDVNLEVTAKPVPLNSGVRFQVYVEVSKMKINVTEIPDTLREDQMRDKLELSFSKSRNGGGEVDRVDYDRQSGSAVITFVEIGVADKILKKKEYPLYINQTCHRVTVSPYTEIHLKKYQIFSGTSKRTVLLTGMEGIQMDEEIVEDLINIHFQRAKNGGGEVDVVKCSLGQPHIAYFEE

[4] = biological target: T3, human NMI (N-myc Interacting protein) (human); test: magnetic-bead chemiluminescent sandwich, kit of Example 8-1; capture 98G10 beads, detection acridinium-B-8; series 2, hNMI 5000 pg/mL
[5] = biological target: T3, human NMI (N-myc Interacting protein) (human); test: magnetic-bead chemiluminescent sandwich; capture 98G10 beads (0.5 mg 98G10), detection acridinium-B-8; hNMI 100 pg/ml
[6] = biological target: T3, human NMI (N-myc Interacting protein) (human); test: magnetic-bead chemiluminescent sandwich; capture 98G10 beads (1.0 mg 98G10), detection acridinium-B-8; hNMI 100 pg/ml
[7] = biological target: T3, human NMI (N-myc Interacting protein) (human); test: magnetic-bead chemiluminescent sandwich, kit of Example 8-1; capture 98G10 beads, detection acridinium-B-8; series 1, hNMI 6000 pg/mL
[8] = biological target: T3, human NMI (N-myc Interacting protein) (human); test: magnetic-bead chemiluminescent sandwich; capture 98G10 beads, detection acridinium-B-8 (1.0 mg B-8 labelled); hNMI 400 pg/mL
[9] = biological target: T3, human NMI (N-myc Interacting protein) (human); test: magnetic-bead chemiluminescent sandwich; capture 98G10 beads, detection acridinium-B-8 (1.0 mg B-8 labelled); hNMI 100 pg/mL
[10] = biological target: T3, human NMI (N-myc Interacting protein) (human); test: magnetic-bead chemiluminescent sandwich, kit of Example 8-1; capture 98G10 beads, detection acridinium-B-8; series 1, hNMI 16000 pg/mL
[11] = biological target: T3, human NMI (N-myc Interacting protein) (human); test: magnetic-bead chemiluminescent sandwich, kit of Example 8-1; capture 98G10 beads, detection acridinium-B-8; series 2, hNMI 150 pg/mL
[12] = biological target: T3, human NMI (N-myc Interacting protein) (human); test: magnetic-bead chemiluminescent sandwich, kit of Example 8-1; capture 98G10 beads, detection acridinium-B-8; series 1, hNMI 4000 pg/mL
[13] = biological target: T3, human NMI (N-myc Interacting protein) (human); test: magnetic-bead chemiluminescent sandwich, kit of Example 8-1; capture 98G10 beads, detection acridinium-B-8; series 2, hNMI 900 pg/mL
[14] = biological target: T3, human NMI (N-myc Interacting protein) (human); test: magnetic-bead chemiluminescent sandwich; capture 98G10 beads, detection acridinium-B-8 (1.0 mg B-8 labelled); hNMI 50 pg/mL
[15] = biological target: T3, human NMI (N-myc Interacting protein) (human); test: magnetic-bead chemiluminescent sandwich; capture 98G10 beads (1.0 mg 98G10), detection acridinium-B-8; hNMI 2000 pg/ml
[16] = biological target: T3, human NMI (N-myc Interacting protein) (human); test: magnetic-bead chemiluminescent sandwich, kit of Example 8-1; capture 98G10 beads, detection acridinium-B-8; series 1, hNMI 12000 pg/mL
[17] = biological target: T3, human NMI (N-myc Interacting protein) (human); test: magnetic-bead chemiluminescent sandwich, kit of Example 8-1; capture 98G10 beads, detection acridinium-B-8; series 1, hNMI 8000 pg/mL
[18] = biological target: T3, human NMI (N-myc Interacting protein) (human); test: magnetic-bead chemiluminescent sandwich, kit of Example 8-1; capture 98G10 beads, detection acridinium-B-8; series 1, hNMI 14000 pg/mL
[19] = biological target: T3, human NMI (N-myc Interacting protein) (human); test: magnetic-bead chemiluminescent sandwich, kit of Example 8-1; capture 98G10 beads, detection acridinium-B-8; series 2, hNMI 10000 pg/mL
[20] = biological target: T3, human NMI (N-myc Interacting protein) (human); test: magnetic-bead chemiluminescent sandwich, kit of Example 8-1; capture 98G10 beads, detection acridinium-B-8; series 1, hNMI 1000 pg/mL
[21] = biological target: T3, human NMI (N-myc Interacting protein) (human); test: magnetic-bead chemiluminescent sandwich, kit of Example 8-1; capture 98G10 beads, detection acridinium-B-8; series 3, hNMI 1000 pg/mL
[22] = biological target: T3, human NMI (N-myc Interacting protein) (human); test: magnetic-bead chemiluminescent sandwich, kit of Example 8-1; capture 98G10 beads, detection acridinium-B-8; series 2, hNMI 3600 pg/mL
[23] = biological target: T3, human NMI (N-myc Interacting protein) (human); test: magnetic-bead chemiluminescent sandwich; capture 98G10 beads (1.0 mg 98G10), detection acridinium-B-8; hNMI 1000 pg/ml
[24] = biological target: T3, human NMI (N-myc Interacting protein) (human); test: magnetic-bead chemiluminescent sandwich, kit of Example 8-1; capture 98G10 beads, detection acridinium-B-8; series 2, hNMI 1800 pg/mL

B1: monoclonal antibody B-8 (antibody, V domains shown)
VH: QSLEESGGDLVKPGASLTLTCTASGFSFSSSYYMCWVRQAPGKGLEWIACIYAGSSGSTYYASWAKGRFTISKTSSTTVTLQMTSLTAADTATYFCAREYSYDDYGDFWGFNLWGPGTLVTVSS
VL: ALVMTQTPSSVSAAVGGTVTINCQASQNIYTNLAWYQQKPGQPPKLLIYGASNLESGVPSRFKGSGSGTEYTLTISDLECDDAATYYCQSSLYSRIADRANAFGGGTEVVVK
notes: Rabbit monoclonal antibody; also called B8-1
[1]
  OD450: 0.897 OD450
[2]
  OD450: 0.221 OD450

B2: acridinium ester-labeled monoclonal antibody B-8 (antibody, V domains shown)
VH: QSLEESGGDLVKPGASLTLTCTASGFSFSSSYYMCWVRQAPGKGLEWIACIYAGSSGSTYYASWAKGRFTISKTSSTTVTLQMTSLTAADTATYFCAREYSYDDYGDFWGFNLWGPGTLVTVSS
VL: ALVMTQTPSSVSAAVGGTVTINCQASQNIYTNLAWYQQKPGQPPKLLIYGASNLESGVPSRFKGSGSGTEYTLTISDLECDDAATYYCQSSLYSRIADRANAFGGGTEVVVK
modifications: acridinium ester label on the antibody, site not stated
[3]
  Signal value: 97600
[4]
  Signal value: 560000
[5]
  Signal value: 9490
[6]
  Signal value: 20400
[7]
  Signal value: 414000
[8]
  Signal value: 39900
[9]
  Signal value: 9490
[10]
  Signal value: 1.21e+06
[11]
  Signal value: 15500
[12]
  Signal value: 258000
[13]
  Signal value: 98500
[14]
  Signal value: 4560
[15]
  Signal value: 397000
[16]
  Signal value: 894000
[17]
  Signal value: 587000
[18]
  Signal value: 1.05e+06
[19]
  Signal value: 1.19e+06
[20]
  Signal value: 57600
[21]
  Signal value: 131000
[22]
  Signal value: 408000
[23]
  Signal value: 201000
[24]
  Signal value: 181000
